US20050272635A1 (published 2005)

Target: T1, glycoprotein hormone beta 5 (GPHB5) (human, UniProt Q86YW7 25-130, one N-linked glycosylation (position not given))
T1 construct: Secreted from the CHO 180 cell line co-expressing GPHA2 and GPHB5; also called beta subunit of CGH
T1 sequence: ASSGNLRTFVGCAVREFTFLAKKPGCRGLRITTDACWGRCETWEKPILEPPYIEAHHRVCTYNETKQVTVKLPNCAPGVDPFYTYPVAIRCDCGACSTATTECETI
Experiment: co-expression in CHO cells; secreted heterodimer

binding result: binds
B1: glycoprotein hormone alpha2 (GPHA2) (ligand)
chain: QEAVIPGCHLHPFNVTVRSDRQGTCQGSHVAQACVGHCESSAFPSRYSVLVASGYRHNITSVSQCCTISGLKKVKVQLQCVGSRREELEIFTARACQCDMCRLSRY
modifications: two N-linked glycosylations (positions not given)
notes: Secreted from the CHO 180 cell line co-expressing GPHA2 and GPHB5; also called Zsig51; alpha subunit of CGH
